Test results published in PMC10786891, “Massively parallel profiling of RNA-targeting CRISPR-Cas13d”.

T1: EsCas13d, nuclease-dead (Eubacterium siraeum, UniProt B0MS50, R295A;H300A;R849A;H854A)
T1 sequence: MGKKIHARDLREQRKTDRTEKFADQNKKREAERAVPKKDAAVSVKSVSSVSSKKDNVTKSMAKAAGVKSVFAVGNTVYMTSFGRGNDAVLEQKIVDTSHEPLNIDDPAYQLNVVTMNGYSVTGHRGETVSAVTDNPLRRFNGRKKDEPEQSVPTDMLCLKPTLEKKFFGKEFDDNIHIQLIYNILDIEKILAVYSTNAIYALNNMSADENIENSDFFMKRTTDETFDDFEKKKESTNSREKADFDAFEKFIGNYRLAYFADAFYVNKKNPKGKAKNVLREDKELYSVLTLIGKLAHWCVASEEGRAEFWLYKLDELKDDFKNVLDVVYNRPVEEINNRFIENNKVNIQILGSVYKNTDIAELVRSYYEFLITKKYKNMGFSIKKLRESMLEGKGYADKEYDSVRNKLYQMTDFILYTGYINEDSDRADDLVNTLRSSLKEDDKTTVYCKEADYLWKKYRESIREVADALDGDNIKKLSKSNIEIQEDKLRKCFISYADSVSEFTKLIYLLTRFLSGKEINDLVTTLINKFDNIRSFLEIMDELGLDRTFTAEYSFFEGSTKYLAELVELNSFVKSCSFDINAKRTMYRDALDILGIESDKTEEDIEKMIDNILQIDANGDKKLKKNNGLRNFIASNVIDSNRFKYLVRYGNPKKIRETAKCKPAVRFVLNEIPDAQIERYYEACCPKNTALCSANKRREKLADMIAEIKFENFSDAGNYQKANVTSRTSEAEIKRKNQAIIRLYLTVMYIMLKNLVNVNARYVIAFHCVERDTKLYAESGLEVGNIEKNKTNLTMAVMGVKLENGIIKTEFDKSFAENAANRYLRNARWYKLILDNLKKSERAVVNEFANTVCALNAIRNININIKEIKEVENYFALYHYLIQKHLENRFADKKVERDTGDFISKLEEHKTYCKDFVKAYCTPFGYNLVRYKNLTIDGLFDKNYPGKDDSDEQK

B1: target 2 MT 5'PFS GCU 3'PFS AGC (mixed)
RNA 1: CACCCGUGCAAAAUUGCAGGGGUCUAAAACCUUCUCCAAAUUGUUUCAUCCU
RNA 2: GGGAAUGGAUCCACAUCUACGAAUUCGCUAGGAUGAAACAAUUUGGAGAAGAGCAGAUCGGAAGAGCACACGU
B2: target 2 MT 5'PFS UAA 3'PFS UCC (mixed)
RNA 1: CACCCGUGCAAAAUUGCAGGGGUCUAAAACCUUCUCCAAAUUGUUUCAUCCU
RNA 2: GGGAAUGGAUCCACAUCUACGAAUUCUAAAGGAUGAAACAAUUUGGAGAAGUCCAGAUCGGAAGAGCACACGU
B3: target 2 MT 5'PFS UAA 3'PFS UCA (mixed)
RNA 1: CACCCGUGCAAAAUUGCAGGGGUCUAAAACCUUCUCCAAAUUGUUUCAUCCU
RNA 2: GGGAAUGGAUCCACAUCUACGAAUUCUAAAGGAUGAAACAAUUUGGAGAAGUCAAGAUCGGAAGAGCACACGU
B4: target 2 MT 5'PFS CGG 3'PFS CUA (mixed)
RNA 1: CACCCGUGCAAAAUUGCAGGGGUCUAAAACCUUCUCCAAAUUGUUUCAUCCU
RNA 2: GGGAAUGGAUCCACAUCUACGAAUUCCGGAGGAUGAAACAAUUUGGAGAAGCUAAGAUCGGAAGAGCACACGU
B5: target 2 MT 5'PFS CGG 3'PFS CUU (mixed)
RNA 1: CACCCGUGCAAAAUUGCAGGGGUCUAAAACCUUCUCCAAAUUGUUUCAUCCU
RNA 2: GGGAAUGGAUCCACAUCUACGAAUUCCGGAGGAUGAAACAAUUUGGAGAAGCUUAGAUCGGAAGAGCACACGU
B6: target 2 MT 5'PFS GGA 3'PFS CGG (mixed)
RNA 1: CACCCGUGCAAAAUUGCAGGGGUCUAAAACCUUCUCCAAAUUGUUUCAUCCU
RNA 2: GGGAAUGGAUCCACAUCUACGAAUUCGGAAGGAUGAAACAAUUUGGAGAAGCGGAGAUCGGAAGAGCACACGU
B7: target 2 MT 5'PFS AAG 3'PFS UAC (mixed)
RNA 1: CACCCGUGCAAAAUUGCAGGGGUCUAAAACCUUCUCCAAAUUGUUUCAUCCU
RNA 2: GGGAAUGGAUCCACAUCUACGAAUUCAAGAGGAUGAAACAAUUUGGAGAAGUACAGAUCGGAAGAGCACACGU
B8: target 2 MT 5'PFS GGA 3'PFS CGA (mixed)
RNA 1: CACCCGUGCAAAAUUGCAGGGGUCUAAAACCUUCUCCAAAUUGUUUCAUCCU
RNA 2: GGGAAUGGAUCCACAUCUACGAAUUCGGAAGGAUGAAACAAUUUGGAGAAGCGAAGAUCGGAAGAGCACACGU
B9: target 2 MT 5'PFS GAA 3'PFS UCA (mixed)
RNA 1: CACCCGUGCAAAAUUGCAGGGGUCUAAAACCUUCUCCAAAUUGUUUCAUCCU
RNA 2: GGGAAUGGAUCCACAUCUACGAAUUCGAAAGGAUGAAACAAUUUGGAGAAGUCAAGAUCGGAAGAGCACACGU
B10: target 2 MT 5'PFS CGG 3'PFS CUC (mixed)
RNA 1: CACCCGUGCAAAAUUGCAGGGGUCUAAAACCUUCUCCAAAUUGUUUCAUCCU
RNA 2: GGGAAUGGAUCCACAUCUACGAAUUCCGGAGGAUGAAACAAUUUGGAGAAGCUCAGAUCGGAAGAGCACACGU
B11: target 2 MT 5'PFS GGA 3'PFS CGC (mixed)
RNA 1: CACCCGUGCAAAAUUGCAGGGGUCUAAAACCUUCUCCAAAUUGUUUCAUCCU
RNA 2: GGGAAUGGAUCCACAUCUACGAAUUCGGAAGGAUGAAACAAUUUGGAGAAGCGCAGAUCGGAAGAGCACACGU
B12: target 2 MT 5'PFS GGA 3'PFS UGU (mixed)
RNA 1: CACCCGUGCAAAAUUGCAGGGGUCUAAAACCUUCUCCAAAUUGUUUCAUCCU
RNA 2: GGGAAUGGAUCCACAUCUACGAAUUCGGAAGGAUGAAACAAUUUGGAGAAGUGUAGAUCGGAAGAGCACACGU
B13: target 1 G13A,U19C (mixed)
RNA 1: CACCCGUGCAAAAAUGCAGGGGUCUAAAACUGAGCGGAUAACCUCUCUAUGG
RNA 2: GGGAAUGGAUCCACAUCUACGAAUUCGUACCACAGAGAAGUUAUCCGCUCACCGAGAUCGGAAGAGCACACGU

Target: T1, EsCas13d, nuclease-dead
Assay: crRNA (strand 1, pre-loaded); Mg2+; 40 mM Tris-HCl pH 7.5, 150 mM NaCl, 6 mM MgCl2, 1 mM DTT, 0.1% Tween-20, 0.2 mg/ml BSA; 25 C; 10 min per concentration, then washed
Settings: tags: His6-TwinStrep-SUMO cleaved; N-terminal SNAP kept (SNAP-Surface 488); label: 3' end held by stalled T7 RNA polymerase

Q: For B1, which Kd is on record?
A: 7.8 ± 1.4 nM

Q: With B2 as the binder, how does the Kd read?
A: 11.8 ± 1.4 nM

Q: Which Kd does the source give for B3 here?
A: 6.8 ± 1.7 nM

Q: B4 was tested. Which Kd did it give?
A: 6.1 ± 0.8 nM

Q: For B5, which Kd is on record?
A: 6.6 ± 0.9 nM

Q: Which Kd does the source give for B6 here?
A: 9.8 ± 0.8 nM

Q: For B7, which Kd is on record?
A: 4.4 ± 0.5 nM

Q: B8 was tested. Which Kd did it give?
A: 9.1 ± 0.9 nM

Q: With B9 as the binder, how does the Kd read?
A: 12.7 ± 3.2 nM

Q: With B10 as the binder, how does the Kd read?
A: 7.2 ± 0.9 nM

Q: How did the Kd turn out when B11 was run?
A: 10.5 ± 1.2 nM

Q: Which Kd does the source give for B12 here?
A: 16.4 ± 1.6 nM

Q: Which Kd does the source give for B13 here?
A: 30 ± 6 nM
